Source: publication PMC5680807 (mAbs, 2017)

Tests used:
[1] = target: basic species of AFD (VL Asp-30 isomerized to the cyclic intermediate form)
[2] = target: human complement factor D (CFD) (Homo sapiens, UniProt P00746); assay: SPR

Chain of human complement factor D (CFD) (from UniProt P00746 26-253) (enzyme) (P00746 26-253): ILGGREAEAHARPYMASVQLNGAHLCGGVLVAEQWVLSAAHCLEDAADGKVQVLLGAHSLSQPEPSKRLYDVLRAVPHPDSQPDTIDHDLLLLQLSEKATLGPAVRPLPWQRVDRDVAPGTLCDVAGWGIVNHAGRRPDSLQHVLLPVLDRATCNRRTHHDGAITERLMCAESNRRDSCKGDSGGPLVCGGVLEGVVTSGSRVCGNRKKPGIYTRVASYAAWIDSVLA

Molecule | fold decrease in CFD-binding affinity against AFD [1] [fold] | Kd [2] [nM]
AFD.v9 (Fab, V domains shown) VH: EVQLVQSGPELKKPGASVKVSCKASGYTFTNYGMNWVRQAPGQGLEWMGWINTYTGETTYAEDFKGRFVFSLDTSVSTAYLQISSLKAEDTAVYYCEREGGVNNWGQGTLVTVSS VL: DIQVTQSPSSLSASVGDRVTITCITSTSIESDMSWYQQKPGKVPKLLISGGNTLRPGVPSRFSGSGSGTDFTLTISSLQPEDVATYYCLQSDSLPYTFGQGTKVEIK |  | 0.03
AFD.v7 (Fab, V domains shown) VH: EVQLVQSGPELKKPGASVKVSCKASGYTFTNYGMNWVRQAPGQGLEWMGWINTYTGETTYAEDFKGRFVFSLDTSVSTAYLQISSLKAEDTAVYYCEREGGVNNWGQGTLVTVSS VL: DIQVTQSPSSLSASVGDRVTITCITSTDIESDMNWYQQKPGKVPKLLISGGNTLRPGVPSRFSGSGSGTDFTLTISSLQPEDVATYYCLQSESLPYTFGQGTKVEIK |  | ≤ 0.01
AFD.v14 (Fab, V domains shown) VH: EVQLVQSGPELKKPGASVKVSCKASGYTFTNYGMNWVRQAPGQGLEWMGWINTYTGETTYAEDFKGRFVFSLDTSVSTAYLQISSLKAEDTAVYYCEREGGVSNWGQGTLVTVSS VL: DIQVTQSPSSLSASVGDRVTITCITSTSIESDMNWYQQKPGKVPKLLISGGNTLRPGVPSRFSGSGSGTDFTLTISSLQPEDVATYYCLQSDSLPYTFGQGTKVEIK |  | 0.0256 ± 0.0063
AFD.v5 (Fab, V domains shown) VH: EVQLVQSGPELKKPGASVKVSCKASGYTFTNYGMNWVRQAPGQGLEWMGWINTYTGETTYADDFKGRFVFSLDTSVSTAYLQISSLKAEDTAVYYCEREGGVNNWGQGTLVTVSS VL: DIQVTQSPSSLSASVGDRVTITCITSTSIDSSMNWYQQKPGKVPKLLISGGNTLRPGVPSRFSGSGSGTDFTLTISSLQPEDVATYYCLQSDSLPYTFGQGTKVEIK |  | 0.28

More lines, now with the values ahead:

fold decrease in CFD-binding affinity against AFD [1] [fold] | Kd [2] [nM] | Molecule
2 |  | human complement factor D (CFD) (from UniProt P00746 26-253) (enzyme)
 | 0.0167 ± 0.0044 | AFD.v8 (Fab, V domains shown) VH: EVQLVQSGPELKKPGASVKVSCKASGYTFTNYGMNWVRQAPGQGLEWMGWINTYTGETTYAEDFKGRFVFSLDTSVSTAYLQISSLKAEDTAVYYCEREGGVNNWGQGTLVTVSS VL: DIQVTQSPSSLSASVGDRVTITCITSTSIESDMNWYQQKPGKVPKLLISGGNTLRPGVPSRFSGSGSGTDFTLTISSLQPEDVATYYCLQSDSLPYTFGQGTKVEIK
 | ≤ 0.01 | AFD.v1 (Fab, V domains shown) VH: EVQLVQSGPELKKPGASVKVSCKASGYTFTNYGMNWVRQAPGQGLEWMGWINTYTGETTYADDFKGRFVFSLDTSVSTAYLQISSLKAEDTAVYYCEREGGVNNWGQGTLVTVSS VL: DIQVTQSPSSLSASVGDRVTITCITSTSIDDDMNWYQQKPGKVPKLLISGGNTLRPGVPSRFSGSGSGTDFTLTISSLQPEDVATYYCLQSDSLPYTFGQGTKVEIK
 | ≤ 0.01 | AFD.v6 (Fab, V domains shown) VH: EVQLVQSGPELKKPGASVKVSCKASGYTFTNYGMNWVRQAPGQGLEWMGWINTYTGETTYAEDFKGRFVFSLDTSVSTAYLQISSLKAEDTAVYYCEREGGVNNWGQGTLVTVSS VL: DIQVTQSPSSLSASVGDRVTITCITSTDIESDMNWYQQKPGKVPKLLISGGNTLRPGVPSRFSGSGSGTDFTLTISSLQPEDVATYYCLQSDSLPYTFGQGTKVEIK
 | ≤ 0.01 | AFD.v3 (Fab, V domains shown) VH: EVQLVQSGPELKKPGASVKVSCKASGYTFTNYGMNWVRQAPGQGLEWMGWINTYTGETTYADDFKGRFVFSLDTSVSTAYLQISSLKAEDTAVYYCEREGGVNNWGQGTLVTVSS VL: DIQVTQSPSSLSASVGDRVTITCITSTDIDSDMNWYQQKPGKVPKLLISGGNTLRPGVPSRFSGSGSGTDFTLTISSLQPEDVATYYCLQSDSLPYTFGQGTKVEIK
 | ≤ 0.01 | AFD.v2 (Fab, V domains shown) VH: EVQLVQSGPELKKPGASVKVSCKASGYTFTNYGMNWVRQAPGQGLEWMGWINTYTGETTYADDFKGRFVFSLDTSVSTAYLQISSLKAEDTAVYYCEREGGVNNWGQGTLVTVSS VL: DIQVTQSPSSLSASVGDRVTITCITSTDIEDDMNWYQQKPGKVPKLLISGGNTLRPGVPSRFSGSGSGTDFTLTISSLQPEDVATYYCLQSDSLPYTFGQGTKVEIK
 | 0.026 | AFD.v4 (Fab, V domains shown) VH: EVQLVQSGPELKKPGASVKVSCKASGYTFTNYGMNWVRQAPGQGLEWMGWINTYTGETTYADDFKGRFVFSLDTSVSTAYLQISSLKAEDTAVYYCEREGGVNNWGQGTLVTVSS VL: DIQVTQSPSSLSASVGDRVTITCITSTDIDDSMNWYQQKPGKVPKLLISGGNTLRPGVPSRFSGSGSGTDFTLTISSLQPEDVATYYCLQSDSLPYTFGQGTKVEIK
